In assay [1] the target is T1, human ALK-1 on cells (CHO-K1-hALK-1 cells; HUVEC; A172) (human, UniProt P37023 22-503). As to the kind of experiment: cell-based or functional assay.
The target of assay [2] is T1, human ALK-1 on cells (CHO-K1-hALK-1 …). Description: cell-based or functional assay. The source holds these as a separate data set.
Assay [3] has the same target. Description: flow cytometry on CHO-K1-hALK-1 cells ('Binding affinity to CHO-ALK1'), MFI; method as for FIG. 3. On the technique in general: In flow cytometry, cells or beads pass a laser one at a time.
For assay [4] the target is unchanged. Description: cell-based or functional assay. The source holds these as a separate data set.
Assay [5] shares this target. Description: flow cytometry on CHO-K1-ALK-1 cells, MFI; detection with human PD-1-PE and PE anti-human IgG Fc antibody 'respectively'.
Assay [6] shares this target. As to the kind of experiment: flow cytometry on CHO-K1-hALK-1 cells, MFI; VEGF 165-biotin and APC-anti-human IgG mAb added after the antibody.
Assay [7] has the same target. As to the kind of experiment: cell-based or functional assay. This is another data set of the same source.
For assay [8] the target is unchanged. Description: cell-based or functional assay. This is another data set of the same source.
Assay [9] shares this target. Description: flow cytometry on CHO-K1-hALK-1 cells, MFI.

Where two headings read alike, the source gives them in different places.

Results on 12 molecules are retold here after patent US20250382386A1 (KINTOR PHARMACEUTICAL GUANGDONG, published 2025).

B1: anti-ALK-1 antibody #1 (antibody, human IgG1, kappa, L234A L235A, V domains shown)
VH: QVQLQESGPGLVKPSQTLSLTCTVSGGSISSGEYYWNWIRQHPGKGLEWIGYIYYSGSTYYNPSLKSRVTISVDTSKNQFSLKLSSVTAADTAVYYCARESVAGFDYWGQGTLVTVSS
VL: EIVLTQSPGTLSLSPGERATLSCRASQSVSSSYLAWYQQKPGQAPRLLIYGTSSRATGIPDRFSGSGSGTDFTLTISRLEPEDFAVYYCQGYGSFPITFGQGTRLEIKR
As for B1, the “IC50 of blocking BMP9-induced Smad1 phosphorylation in HUVEC cells (ELISA kit)” value (“IC50 … (ELISA kit)” for short) in assay [1] was determined as 5.8 nM.

B2: anti-ALK-1 antibody #12 (antibody, human IgG1, kappa, L234A L235A, V domains shown)
VH: QVQLQESGPGLVKPSQTLSLTCTVSGGSISSGEYYWNWIRQHPGKGLEWIGYIYYSGSTYYNPSLKSRVTISVDTSKNQFSLKLSSVTAADTAVYYCARESVAGFDYWGQGTLVTVSS
VL: EIVLTQSPGTLSLSPGERATLSCRASQSVSSSYLAWYQQKPGQAPRLLIYGTSSRATGIPDRFSGSGSGTDFTLTISRLEPEDFAVYYCQIYGSIPITFGQGTRLEIKR
With B2, the “IC50 … (ELISA kit)” value in [1] came out at 11.2 nM.

B3: anti-ALK-1 antibody #3 (antibody, human IgG1, kappa, L234A L235A, V domains shown)
VH: QVQLQESGPGLVKPSQTLSLTCTVSGGSISSGEYYWNWIRQHPGKGLEWIGYIYYSGSTYYNPSLKSRVTISVDTSKNQFSLKLSSVTAADTAVYYCARESVAGFDYWGQGTLVTVSS
VL: EIVLTQSPGTLSLSPGERATLSCRASQSVSSSYLAWYQQKPGQAPRLLIYGTSSRATGIPDRFSGSGSGTDFTLTISRLEPEDFAVYYCQLYGSFPITFGQGTRLEIKR
In the case of B3, in assay [1], the “IC50 … (ELISA kit)” value was 5.3 nM.

B4: anti-ALK-1 antibody #28 (antibody, human IgG1, kappa, L234A L235A, V domains shown)
VH: QVQLQESGPGLVKPSQTLSLTCTVSGGSISSGEYYWNWIRQHPGKGLEWIGYIYYSGSTYYNPSLKSRVTISVDTSKNQFSLKLSSVTAADTAVYYCARESVAGFDYWGQGTLVTVSS
VL: EIVLTQSPGTLSLSPGERATLSCRASQSVSSSYLAWYQQKPGQAPRLLIYGTSSRATGIPDRFSGSGSGTDFTLTISRLEPEDFAVYYCQIYGSVPITFGQGTRLEIKR
For the molecule B4, the “IC50 … (ELISA kit)” value in assay [1] came out at 6.9 nM.

B5: anti-ALK-1 antibody #9 (antibody, human IgG1, kappa, L234A L235A, V domains shown)
VH: QVQLQESGPGLVKPSQTLSLTCTVSGGSISSGEYYWNWIRQHPGKGLEWIGYIYYSGSTYYNPSLKSRVTISVDTSKNQFSLKLSSVTAADTAVYYCARESVAGFDYWGQGTLVTVSS
VL: EIVLTQSPGTLSLSPGERATLSCRASQSVSSSYLAWYQQKPGQAPRLLIYGTSSRATGIPDRFSGSGSGTDFTLTISRLEPEDFAVYYCQIYGSWPITFGQGTRLEIKR
Consider B5, for which the “IC50 … (ELISA kit)” value in assay [1] worked out at 11.6 nM.

B6: anti-ALK-1 antibody #18 (antibody, human IgG1, kappa, L234A L235A, V domains shown)
VH: QVQLQESGPGLVKPSQTLSLTCTVSGGSISSGEYYWNWIRQHPGKGLEWIGYIYYSGSTYYNPSLKSRVTISVDTSKNQFSLKLSSVTAADTAVYYCARESVAGFDYWGQGTLVTVSS
VL: EIVLTQSPGTLSLSPGERATLSCRASQSVSSSYLAWYQQKPGQAPRLLIYGTSSRATGIPDRFSGSGSGTDFTLTISRLEPEDFAVYYCQAYGSWPITFGQGTRLEIKR
notes: the rest as BM; also called #18 mutant; ALK-1 mAb (#18 mutant)
The term EC50 denotes the concentration needed to bring the measured effect to its halfway point. Low readings indicate a more potent agent, high ones a less potent agent. As to B6, in assay [2], the “IC50; blocking of BMP9-induced Smad1 phosphorylation, pSmad1 ELISA assay in A172 cell line (right panel), OD 450” value was determined as 2.39 nM. Also, the “IC50; blocking of BMP9-induced Smad1 phosphorylation, pSmad1 ELISA assay in HUVEC (left panel), OD 450” value in assay [2] came to 26.3 nM. For the same molecule, the EC50 turned out to be 0.447 nM in assay [3], 1.85 nM in [5] and 1.85 nM in assay [6]. Moreover, the “IC50 … (ELISA kit)” value in [1] turned out to be 8.2 nM. The figures for the “IC50; blocking of BMP9-induced Smad1 phosphorylation, pSmad1 ELISA assay in HUVEC, OD450” value in [4] and in assay [8] were 20.9 nM and 26.3 nM, respectively. For the same molecule, in [7], the “IC50; blocking of BMP9-induced Smad1 phosphorylation, pSmad1 ELISA assay in A172 cell line, OD 450” value turned out to be 2.39 nM.

B7: anti-ALK-1 antibody #25 (antibody, human IgG1, kappa, L234A L235A, V domains shown)
VH: QVQLQESGPGLVKPSQTLSLTCTVSGGSISSGEYYWNWIRQHPGKGLEWIGYIYYSGSTYYNPSLKSRVTISVDTSKNQFSLKLSSVTAADTAVYYCARESVAGFDYWGQGTLVTVSS
VL: EIVLTQSPGTLSLSPGERATLSCRASQSVSSSYLAWYQQKPGQAPRLLIYGTSSRATGIPDRFSGSGSGTDFTLTISRLEPEDFAVYYCQVYGSWPITFGQGTRLEIKR
In the case of B7, the “IC50 … (ELISA kit)” value in assay [1] stood at 9.1 nM.

B8: anti-ALK-1 antibody #27 (antibody, human IgG1, kappa, L234A L235A, V domains shown)
VH: QVQLQESGPGLVKPSQTLSLTCTVSGGSISSGEYYWNWIRQHPGKGLEWIGYIYYSGSTYYNPSLKSRVTISVDTSKNQFSLKLSSVTAADTAVYYCARESVAGFDYWGQGTLVTVSS
VL: EIVLTQSPGTLSLSPGERATLSCRASQSVSSSYLAWYQQKPGQAPRLLIYGTSSRATGIPDRFSGSGSGTDFTLTISRLEPEDFAVYYCQGYGSWPITFGQGTRLEIKR
On to B8, for which the “IC50 … (ELISA kit)” value in assay [1] is 6.3 nM.

B9: anti-ALK-1 antibody #26 (antibody, human IgG1, kappa, L234A L235A, V domains shown)
VH: QVQLQESGPGLVKPSQTLSLTCTVSGGSISSGEYYWNWIRQHPGKGLEWIGYIYYSGSTYYNPSLKSRVTISVDTSKNQFSLKLSSVTAADTAVYYCARESVAGFDYWGQGTLVTVSS
VL: EIVLTQSPGTLSLSPGERATLSCRASQSVSSSYLAWYQQKPGQAPRLLIYGTSSRATGIPDRFSGSGSGTDFTLTISRLEPEDFAVYYCQVYGSVPITFGQGTRLEIKR
Take B9: the “IC50 … (ELISA kit)” value in assay [1] worked out at 12.4 nM.

B10: anti-ALK-1 antibody #14 (antibody, human IgG1, kappa, L234A L235A, V domains shown)
VH: QVQLQESGPGLVKPSQTLSLTCTVSGGSISSGEYYWNWIRQHPGKGLEWIGYIYYSGSTYYNPSLKSRVTISVDTSKNQFSLKLSSVTAADTAVYYCARESVAGFDYWGQGTLVTVSS
VL: EIVLTQSPGTLSLSPGERATLSCRASQSVSSSYLAWYQQKPGQAPRLLIYGTSSRATGIPDRFSGSGSGTDFTLTISRLEPEDFAVYYCQMYGSWPITFGQGTRLEIKR
Turning to B10, the “IC50 … (ELISA kit)” value in [1] is 11.1 nM.

B11: anti-ALK-1 antibody #19 (antibody, human IgG1, kappa, L234A L235A, V domains shown)
VH: QVQLQESGPGLVKPSQTLSLTCTVSGGSISSGEYYWNWIRQHPGKGLEWIGYIYYSGSTYYNPSLKSRVTISVDTSKNQFSLKLSSVTAADTAVYYCARESVAGFDYWGQGTLVTVSS
VL: EIVLTQSPGTLSLSPGERATLSCRASQSVSSSYLAWYQQKPGQAPRLLIYGTSSRATGIPDRFSGSGSGTDFTLTISRLEPEDFAVYYCQFYGSWPITFGQGTRLEIKR
For B11, the “IC50 … (ELISA kit)” value in assay [1] was found to be 5.2 nM.

B12: Bevacizumab (antibody, V domains shown)
VH: EVQLVESGGGLVQPGGSLRLSCAASGYTFTNYGMNWVRQAPGKGLEWVGWINTYTGEPTYAADFKRRFTFSLDTSKSTAYLQMNSLRAEDTAVYYCAKYPHYYGSSHWYFDVWGQGTLVTVSS
VL: DIQMTQSPSSLSASVGDRVTITCSASQDISNYLNWYQQKPGKAPKVLIYFTSSLHSGVPSRFSGSGSGTDFTLTISSLQPEDFATYYCQQYSTVPWTFGQGTKVEIK
notes: Bought control antibody (Biointron, B7424); also called Avastin; VEGF-A monoclonal antibody (Bevacizumab)
Consider B12, for which the binding result in assay [9] is “no binding (tested: about 50 nM)”.
